{"source": "paper PMC7402097", "about": "“Reduction of Protein Bound Methionine Sulfoxide by a Periplasmic Dimethyl Sulfoxide Reductase” (Antioxidants, 2020)", "proteins": {"B1": {"name": "DorA DMSO reductase (Cereibacter sphaeroides) (protein)", "chain": "EGLANGEVMSGCHWGVFKARVENGRAVAFEPWDKDPAPSHQLPGVLDSIYSPTRIKYPMVRREFLEKGVNADRSTRGNGDFVRVTWDEALDLVARELKRVQESYGPTGTFGGSYGWKSPGRLHNCQVLMRRALNLAGGFVNSSGDYSTAAAQIIMPHVMGTLEVYEQQTAWPVVVENTDLMVFWAADPMKTNEIGWVIPDHGAYAGMKALKEKGTRVICINPVRTETADYFGADVVSPRPQTDVALMLGMAHTLYSEDLHDKDFLENCTTGFDLFAAYLTGESDGTPKTAEWAAEICGLPAEQIRELARSFVAGRTMLAAGWSIQRMHHGEQAHWMLVTLASMIGQIGLPGGGFGLSYHYSNGGSPTSDGPALGGISDGGKAVEGAAWLSESGATSIPCARVVDMLLNPGGEFQFNGATATYPDVKLAYWAGGNPFAHHQDRNRMLKAWEKLETFIVQDFQWTATARHADIVLPATTSYERNDIESVGDYSNRAILAMKKVVDPLYEARSDYDIFAALAERLGKGAEFTEGRDEMGWISSFYEAAVKQAEFKNVAMPSFEDFWSEGIVEFPITEGANFVRYADFREDPLFNPLGTPSGLIEIYSKNIEKMGYDDCPAHPTWMEPAERLGGAGAKYPLHVVASHPKSRLHSQLNGTSLRDLYAVAGHEPCLINPADAAARGIADGDVLRVFNDRGQILVGAKVSDAVMPGAIQIYEGGWYDPLDPSEEGTLDKYGDVNVLSLDVGTSKLAQGNCGQTILADVEKYAGAPVTVTVFDTPKGA", "notes": "full-length dorA with C-terminal 6-His tag (kept), pIND4-DorA-His; expressed in R. sphaeroides f. sp. denitrificans IL106 dorA- (host) and purified from periplasm; monomeric"}}, "key": {"[1]": {"substrate": "C[S+](C)[O-]", "experiment": "purified protein", "settings": "Britton-Robinson buffer pH 6.0, 46 nM DorA, electron donor dithionite-reduced benzyl viologen"}, "[2]": {"substrate": "C[S+]([O-])CC[C@H](N)C(=O)O", "experiment": "purified protein", "type": "biochemical, Cereibacter sphaeroides", "settings": "Britton-Robinson buffer pH 6.0, 46 nM DorA, electron donor dithionite-reduced benzyl viologen, R,S diastereomer mixture used, KM already divided by 2 to count only the S-diastereomer"}}, "data": [{"protein": "B1", "values": [{"measurement": "Km", "setting": "[1]", "result": "1.8 ± 0.4", "unit": "µM"}, {"measurement": "kcat", "setting": "[1]", "result": 3.9, "unit": "s⁻¹"}, {"measurement": "kcat/Km", "setting": "[1]", "result": "2.2e+06", "unit": "M⁻¹ s⁻¹"}, {"measurement": "Km", "setting": "[2]", "result": "68.8 ± 5.7", "unit": "µM"}, {"measurement": "kcat", "setting": "[2]", "result": "4.2 ± 0.1", "unit": "s⁻¹"}, {"measurement": "kcat/Km", "setting": "[2]", "result": 61000, "unit": "M⁻¹ s⁻¹"}]}]}
